Where two headings read alike, the source gives them in different places. Numbered stars: 1 amine (or outer) side, 2 acyl side, 3 side chain; on linkers, the order of the positions; unused ones are H or OH. Bridge positions count the residues as written; N and C are the ends. Square brackets hold non-standard residues; d marks the D form. Primed or numbered codes have the meaning given here. Ends that are not written are not given here. F4aao = 4-(carboxymethoxy)-L-phenylalanine, O=C([C@H](Cc1ccc(OCC(=O)[*:3])cc1)N[*:1])[*:2]; NMePhe(4-COOH) = CN[C@@H](Cc1ccc(C(=O)O)cc1)C(=O)O; Tyr(Me) = COc1ccc(C[C@H](N[*:1])C(=O)[*:2])cc1; NMePhe(3-Cl) = CN[C@@H](Cc1cccc(Cl)c1)C(=O)O; 3Pal(6-NH2) = Nc1ccc(C[C@H](N)C(=O)O)cn1; NMeW = CN[C@@H](Cc1c[nH]c2ccccc12)C(=O)O; Lys(N3) = [N-]=[N+]=NCCCC[C@H](N)C(=O)O; NMeY = CN[C@@H](Cc1ccc(O)cc1)C(=O)O; Nva(3-Et) = CCC(CC)[C@H](N)C(=O)O; NMeF = CN[C@@H](Cc1ccccc1)C(=O)O; F3COO(PEG4c) = not defined here; PEG4c(3) = PEG4 linker acid; PEG4c″ = not defined here
Assays:
[1] = target: T1, human transferrin receptor (hTfR) (human, UniProt P02786 89-760); experiment: SPR (Biacore T200), pH 7.4, hTfR on chip
T1 construct: Recombinant hTfR; at pH 7.4 captured on the chip by an anti-His tag antibody, at pH 6.0 immobilized on an NTA chip, so it carries a His tag; also called human TfR; TfR1

[2] = target: T1, human transferrin receptor (hTfR); experiment: SPR, koff at pH 6.0 over koff at pH 7.4
[3] = target: T1, human transferrin receptor (hTfR); experiment: SPR (Biacore T200), pH 6.0, hTfR on chip
[4] = target: T1, human transferrin receptor (hTfR); experiment: SPR, KD at pH 6.0 over KD at pH 7.4
[5] = target: T1, human transferrin receptor (hTfR); experiment: SPR (Biacore T200), pH 7.4, hTfR on chip; remark: listed apart in the source
[6] = target: T1, human transferrin receptor (hTfR); experiment: SPR, koff at pH 6.0 over koff at pH 7.4; remark: listed apart in the source
[7] = target: T1, human transferrin receptor (hTfR); experiment: SPR, KD at pH 6.0 over KD at pH 7.4; remark: listed apart in the source
[8] = target: T1, human transferrin receptor (hTfR); experiment: SPR (Biacore T200), pH 6.0, hTfR on chip; remark: listed apart in the source
[9] = target: T1, human transferrin receptor (hTfR); experiment: SPR, koff at pH 6.0 over koff at pH 7.4; remark: listed apart in the source
[10] = target: T1, human transferrin receptor (hTfR); experiment: SPR (Biacore T200), pH 7.4, hTfR on chip; remark: listed apart in the source
[11] = target: T1, human transferrin receptor (hTfR); experiment: SPR (Biacore T200), pH 6.0, hTfR on chip; remark: listed apart in the source
[12] = target: T1, human transferrin receptor (hTfR); experiment: SPR, KD at pH 6.0 over KD at pH 7.4; remark: listed apart in the source

T1 sequence (P02786 89-760 limits assumed): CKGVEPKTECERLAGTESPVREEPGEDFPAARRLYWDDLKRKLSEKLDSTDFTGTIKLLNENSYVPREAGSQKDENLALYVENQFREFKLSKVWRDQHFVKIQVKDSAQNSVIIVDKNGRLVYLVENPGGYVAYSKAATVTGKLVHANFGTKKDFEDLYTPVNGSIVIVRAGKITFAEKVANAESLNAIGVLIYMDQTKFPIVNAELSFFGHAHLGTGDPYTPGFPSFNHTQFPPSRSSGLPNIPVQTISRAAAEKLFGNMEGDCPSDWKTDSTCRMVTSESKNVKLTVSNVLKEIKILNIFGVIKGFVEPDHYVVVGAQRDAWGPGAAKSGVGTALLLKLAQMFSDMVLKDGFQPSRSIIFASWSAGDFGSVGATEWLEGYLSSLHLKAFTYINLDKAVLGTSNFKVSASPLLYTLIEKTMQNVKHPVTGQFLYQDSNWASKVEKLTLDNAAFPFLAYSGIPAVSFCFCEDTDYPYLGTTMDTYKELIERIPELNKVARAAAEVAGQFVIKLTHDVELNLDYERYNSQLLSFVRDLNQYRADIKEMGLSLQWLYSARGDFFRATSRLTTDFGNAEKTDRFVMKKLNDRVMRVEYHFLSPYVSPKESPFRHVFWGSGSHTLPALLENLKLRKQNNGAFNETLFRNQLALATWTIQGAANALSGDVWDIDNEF

B1: 894_3488 (peptide)
peptide: AVXVXNYYIIKRXXC
modifications: as printed: A-V-MeF-V-MeW-N-Y-Y-I-I-K-R-F3COO(PEG4c)-MeF4COO-C; linker G-KN3-NH2; cyclic (ClAc-Ala1 thioether to Cys15)
B1 was tested, and the Kd [1] was 1.6 nM, the “dependency koff pH6.0/7.4” value [2] was 5.15 and the Kd [3] was 5.15 nM. For the same binder, the “dependency KD pH6.0/7.4” value [4] was 3.22.

B2: 894_0603 (peptide)
peptide: {CH2CO}-AV[NMeF]VWN[3Pal(6-NH2)]YIIKRY[NMePhe(4-COOH)]C
modifications: thioether N-15; not fully specified (C-terminus)
With B2 the Kd [5] was 7.31 nM, the “dependency koff pH6.0/7.4” value [6] was 11.3 and the “dependency KD pH6.0/7.4” value [7] was 4.79. For the same binder, the Kd [8] was 35 nM.

B3: 894_3435 (peptide)
peptide: AVXVWNYYIIXRYXC
modifications: as printed: A-V-MeF-V-W-N-Y-Y-I-I-E(PEG8Me)-R-Y-MeY-C; linker G-KN3; cyclic (ClAc-Ala1 thioether to Cys15)
With B3 the Kd [5] was 11.6 nM, the “dependency koff pH6.0/7.4” value [6] was 6.89 and the “dependency KD pH6.0/7.4” value [7] was 3.55. The Kd [8] was 41.2 nM.

B4: 894_0604 (peptide)
peptide: {CH2CO}-AV[NMeF]V[NMeW]N[3Pal(6-NH2)]YIIKRY[NMePhe(4-COOH)]C
modifications: thioether N-15; not fully specified (C-terminus)
With B4 the Kd [5] was 3.51 nM, the “dependency koff pH6.0/7.4” value [6] was 7.83 and the “dependency KD pH6.0/7.4” value [7] was 4.76. It also gave a Kd [8] of 16.7 nM.

B5: 894_0601 (peptide)
peptide: AVXVWNXYIIKRYXC
modifications: not fully specified; as printed: A-V-MeF-V-W-N-3Py6NH2-Y-I-I-K-R-Y-MeY-C; linker PEG4c; cyclic (ClAc-Ala1 thioether to Cys15)
B5 was tested, and the Kd [5] was 5.3 nM, the “dependency koff pH6.0/7.4” value [6] was 8.89 and the “dependency KD pH6.0/7.4” value [7] was 3.28. The Kd [8] was 17.4 nM.

B6: 894_3436 (peptide)
peptide: AVXVWNYYIIRRXXC
modifications: as printed: A-V-MeF-V-W-N-Y-Y-I-I-R-R-F3COO(PEG8Me)-MeY-C; linker G-KN3; cyclic (ClAc-Ala1 thioether to Cys15)
In the case of B6, the Kd [5] is reported as 2 nM, the “dependency koff pH6.0/7.4” value [6] is reported as 5.75 and the “dependency KD pH6.0/7.4” value [7] is reported as 3.36. For the same binder, the Kd [8] was 6.72 nM.

B7: 894_3491 (peptide)
peptide: {CH2CO}-AV[NMeF]VWNRYIIRR[F3COO(PEG4c)][NMePhe(4-COOH)]CG[Lys(N3)]-NH2
modifications: thioether N-15; reading uncertain
For B7, the Kd [1] was 214 nM, the “dependency koff pH6.0/7.4” value [2] was 2.44 and the Kd [3] was 799 nM. The “dependency KD pH6.0/7.4” value [4] was 3.73.

B8: 894_0602 (peptide)
peptide: AVXVXNXYIIKRYXC
modifications: not fully specified; as printed: A-V-MeF-V-MeW-N-3Py6NH2-Y-I-I-K-R-Y-MeY-C; linker PEG4c; cyclic (ClAc-Ala1 thioether to Cys15)
For B8, the Kd [5] was 6.37 nM, the “dependency koff pH6.0/7.4” value [6] was 6.5 and the “dependency KD pH6.0/7.4” value [7] was 2.97. For the same binder, the Kd [8] was 18.9 nM.

B9: 894_0620 (peptide)
peptide: {CH2CO}-AV[NMePhe(3-Cl)]V[NMeW]N[3Pal(6-NH2)]YI[code s]KRY[NMeY]C
modifications: thioether N-15; also: linker PEG4c attached, place not given here
notes: Position 10 is printed as lower-case 's'
In the case of B9, the Kd [5] is reported as 4.97 nM, the “dependency koff pH6.0/7.4” value [6] is reported as 12.5 and the “dependency KD pH6.0/7.4” value [7] is reported as 3.26. The Kd [8] was 16.2 nM.

B10: 894_0619 (peptide)
peptide: {CH2CO}-AV[NMeF]V[NMeW]N[3Pal(6-NH2)]YI[code s]KRY[NMeY]C
modifications: thioether N-15; also: linker PEG4c attached, place not given here
notes: as for B9
For B10, the Kd [5] was 27.6 nM, the “dependency koff pH6.0/7.4” value [6] was 12.2 and the “dependency KD pH6.0/7.4” value [7] was 4.57. The Kd [8] was 126 nM.

B11: 894_3498 (peptide)
peptide: AVXVXNXYIIKRYXC
modifications: as printed: A-V-MeF-V-MeW-N-3Py6NH2-Y-I-I-K-R-Y-MeF4COO-C; linker G-de-de-de-ds-ds-KN3-NH2; cyclic (ClAc-Ala1 thioether to Cys15)
B11 was tested, and the Kd [1] was 18.8 nM, the “dependency koff pH6.0/7.4” value [2] was 10.8 and the Kd [3] was 145 nM. For the same binder, the “dependency KD pH6.0/7.4” value [4] was 7.71.

B12: 894_0647 (peptide)
peptide: {CH2CO}-AV[NMePhe(3-Cl)]V[NMeW]NY[F4aao]IIKRF[NMePhe(4-COOH)](PEG4c(3))C-{PEG4c(3)-NH2}
modifications: thioether N-15
For B12, the “dependency koff pH6.0/7.4” value [9] was 9.27, the Kd [10] was 0.142 nM and the Kd [11] was 0.76 nM. The “dependency KD pH6.0/7.4” value [12] was 5.35.

B13: 894_0593 (peptide)
peptide: {CH2CO}-AV[NMeF]V[NMeW]NYY[Nva(3-Et)]IKRY[NMePhe(4-COOH)]C
modifications: thioether N-15; not fully specified (C-terminus)
For B13, the Kd [5] was 3.61 nM, the “dependency koff pH6.0/7.4” value [6] was 3.72 and the “dependency KD pH6.0/7.4” value [7] was 2.64. The Kd [8] was 9.52 nM.

B14: 894_0612 (peptide)
peptide: {CH2CO}-AV[NMePhe(3-Cl)]V[NMeW]NYY[Nva(3-Et)]SKRY[NMeY]C
modifications: thioether N-15; not fully specified (C-terminus)
In the case of B14, the Kd [5] is reported as 5.67 nM, the “dependency koff pH6.0/7.4” value [6] is reported as 6.71 and the “dependency KD pH6.0/7.4” value [7] is reported as 2.33. The Kd [8] was 13.2 nM.

B15: 894_0611 (peptide)
peptide: {CH2CO}-AV[NMeF]V[NMeW]NYY[Nva(3-Et)]SKRY[NMeY]C
modifications: thioether N-15; not fully specified (C-terminus)
In the case of B15, the Kd [5] is reported as 30.4 nM, the “dependency koff pH6.0/7.4” value [6] is reported as 4.83 and the “dependency KD pH6.0/7.4” value [7] is reported as 2.18. The Kd [8] was 66.3 nM.

B16: 894_0615 (peptide)
peptide: AVXVXNYYIIKRYXC
modifications: as printed: A-V-Me3Py-V-MeW-N-Y-Y-I-I-K-R-Y-MeY-C; linker PEG4c; cyclic (ClAc-Ala1 thioether to Cys15)
In the case of B16, the Kd [5] is reported as 16.6 nM, the “dependency koff pH6.0/7.4” value [6] is reported as 2.87 and the “dependency KD pH6.0/7.4” value [7] is reported as 0.92. The Kd [8] was 15.3 nM.

B17: 894_0644 (peptide)
peptide: {CH2CO}-AV[NMePhe(3-Cl)]V[NMeW]NY[F4aao]IIKRF[NMeY]C-{PEG4c(3)-NH2}
modifications: thioether N-15
For B17, the “dependency koff pH6.0/7.4” value [9] was 4.92, the Kd [10] was 0.322 nM and the Kd [11] was 0.764 nM. The “dependency KD pH6.0/7.4” value [12] was 2.37.

B18: 894_0636 (peptide)
peptide: AVXVXNYXIIKRFXC
modifications: as printed: A-V-MeF3C-V-MeW-N-Y-F4OMe-I-I-K-R-F-MeY-C; linker PEG4c-NH2; cyclic (ClAc-Ala1 thioether to Cys15)
For B18, the “dependency koff pH6.0/7.4” value [9] was 5.55, the Kd [10] was 0.226 nM and the Kd [11] was 0.81 nM. The “dependency KD pH6.0/7.4” value [12] was 3.58.

B19: 894_0641 (peptide)
peptide: {CH2CO}-AV[NMePhe(3-Cl)]V[NMeW]NR[Tyr(Me)]IIKRF[NMeY]C-{PEG4c″-NH2}
modifications: thioether N-15; reading uncertain
For B19, the “dependency koff pH6.0/7.4” value [9] was 3.44, the Kd [10] was 3.81 nM and the Kd [11] was 13.3 nM. The “dependency KD pH6.0/7.4” value [12] was 3.49.

B20: 894_0642 (peptide)
peptide: {CH2CO}-AV[NMePhe(3-Cl)]V[NMeW]NR[Tyr(Me)]IIQRF[NMeY]C-{PEG4c(3)-NH2}
modifications: thioether N-15
For B20, the “dependency koff pH6.0/7.4” value [9] was 4.85, the Kd [10] was 20.6 nM and the Kd [11] was 75.5 nM. For the same binder, the “dependency KD pH6.0/7.4” value [12] was 3.67.

B21: 894_0637 (peptide)
peptide: AVXVXNYXIIQRFXC
modifications: as printed: A-V-MeF3C-V-MeW-N-Y-F4OMe-I-I-Q-R-F-MeY-C; linker PEG4c-NH2; cyclic (ClAc-Ala1 thioether to Cys15)
With B21 the “dependency koff pH6.0/7.4” value [9] was 9.23, the Kd [10] was 0.859 nM and the Kd [11] was 4.86 nM. The “dependency KD pH6.0/7.4” value [12] was 5.66.

B22: 894_0616 (peptide)
peptide: AVXVXNYYXIKRYXC
modifications: as printed: A-V-Me3Py-V-MeW-N-Y-Y-Eva-I-K-R-Y-MeY-C; linker PEG4c; cyclic (ClAc-Ala1 thioether to Cys15)
With B22 the Kd [5] was 41.7 nM, the “dependency koff pH6.0/7.4” value [6] was 3.41 and the “dependency KD pH6.0/7.4” value [7] was 1.22. For the same binder, the Kd [8] was 50.8 nM.

B23: 894_0607 (peptide)
peptide: AVXVXNYYIIKRXXC
modifications: not fully specified; as printed: A-V-MeF3C-V-W1Me-N-Y-Y-I-I-K-R-4Py-MeY-C; linker PEG4c; cyclic (ClAc-Ala1 thioether to Cys15)
With B23 the Kd [5] was 0.546 nM, the “dependency koff pH6.0/7.4” value [6] was 7.49 and the “dependency KD pH6.0/7.4” value [7] was 3.74. For the same binder, the Kd [8] was 2.04 nM.
